Results: patent publication US20070049521A1 (ENOBIA PHARMA, published 2007)
Blank lines part the entries; values can stand above or below the binder they belong to. No end group written: not given here.

Legend:
[1] = target: T1, human GC-B, overexpressed on HEK293 cells (human, UniProt P20594 23-1047); assay: PLAP activity bound to transiently transfected HEK293 cells
T1 construct: whole, on cells
T1 sequence (looked up): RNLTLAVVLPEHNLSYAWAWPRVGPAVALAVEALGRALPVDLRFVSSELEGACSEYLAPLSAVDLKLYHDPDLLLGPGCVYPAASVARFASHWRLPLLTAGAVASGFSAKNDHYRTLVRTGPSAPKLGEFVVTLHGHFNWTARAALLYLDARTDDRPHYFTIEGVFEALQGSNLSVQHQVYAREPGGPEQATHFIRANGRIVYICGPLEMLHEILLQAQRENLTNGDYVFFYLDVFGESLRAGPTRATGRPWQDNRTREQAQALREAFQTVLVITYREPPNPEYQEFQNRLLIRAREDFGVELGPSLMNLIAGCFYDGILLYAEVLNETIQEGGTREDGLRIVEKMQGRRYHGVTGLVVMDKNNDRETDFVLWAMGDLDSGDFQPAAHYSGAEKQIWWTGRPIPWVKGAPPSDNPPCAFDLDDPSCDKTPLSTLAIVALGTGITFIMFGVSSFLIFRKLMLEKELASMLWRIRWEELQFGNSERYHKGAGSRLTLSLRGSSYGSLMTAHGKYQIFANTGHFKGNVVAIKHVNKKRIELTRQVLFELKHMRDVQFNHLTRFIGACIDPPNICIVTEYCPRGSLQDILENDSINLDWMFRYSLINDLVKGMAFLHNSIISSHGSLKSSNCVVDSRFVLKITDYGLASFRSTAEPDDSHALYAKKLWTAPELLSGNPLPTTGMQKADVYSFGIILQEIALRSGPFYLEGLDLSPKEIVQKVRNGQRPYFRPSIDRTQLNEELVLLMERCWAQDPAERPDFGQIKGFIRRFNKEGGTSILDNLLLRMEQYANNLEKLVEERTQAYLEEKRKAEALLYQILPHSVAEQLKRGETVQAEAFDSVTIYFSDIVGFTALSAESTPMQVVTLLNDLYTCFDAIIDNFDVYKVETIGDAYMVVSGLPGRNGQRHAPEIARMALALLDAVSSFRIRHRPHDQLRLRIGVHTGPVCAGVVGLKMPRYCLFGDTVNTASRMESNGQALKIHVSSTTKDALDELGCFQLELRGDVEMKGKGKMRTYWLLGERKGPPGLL
Excerpt: (§1) To analyze the potential binding of Ostn to natriuretic receptors, a fusion protein (PLAP-Ostn) (FIG. 6) was generated as described above. This fusion protein comprised an N-terminal secreted placental alkaline phosphatase (PLAP) moiety linked to mature mouse Ostn (residues 29-130) (SEQ ID NO: 62). Conditioned media containing PLAP-mOstn was used to assess Ostn binding on transiently transfected cells.

[2] = target: T2, rat GC-A, overexpressed on HEK293 cells (rat, UniProt P18910 29-1057); assay: as above
T2 construct: whole, on cells
T2 sequence (looked up): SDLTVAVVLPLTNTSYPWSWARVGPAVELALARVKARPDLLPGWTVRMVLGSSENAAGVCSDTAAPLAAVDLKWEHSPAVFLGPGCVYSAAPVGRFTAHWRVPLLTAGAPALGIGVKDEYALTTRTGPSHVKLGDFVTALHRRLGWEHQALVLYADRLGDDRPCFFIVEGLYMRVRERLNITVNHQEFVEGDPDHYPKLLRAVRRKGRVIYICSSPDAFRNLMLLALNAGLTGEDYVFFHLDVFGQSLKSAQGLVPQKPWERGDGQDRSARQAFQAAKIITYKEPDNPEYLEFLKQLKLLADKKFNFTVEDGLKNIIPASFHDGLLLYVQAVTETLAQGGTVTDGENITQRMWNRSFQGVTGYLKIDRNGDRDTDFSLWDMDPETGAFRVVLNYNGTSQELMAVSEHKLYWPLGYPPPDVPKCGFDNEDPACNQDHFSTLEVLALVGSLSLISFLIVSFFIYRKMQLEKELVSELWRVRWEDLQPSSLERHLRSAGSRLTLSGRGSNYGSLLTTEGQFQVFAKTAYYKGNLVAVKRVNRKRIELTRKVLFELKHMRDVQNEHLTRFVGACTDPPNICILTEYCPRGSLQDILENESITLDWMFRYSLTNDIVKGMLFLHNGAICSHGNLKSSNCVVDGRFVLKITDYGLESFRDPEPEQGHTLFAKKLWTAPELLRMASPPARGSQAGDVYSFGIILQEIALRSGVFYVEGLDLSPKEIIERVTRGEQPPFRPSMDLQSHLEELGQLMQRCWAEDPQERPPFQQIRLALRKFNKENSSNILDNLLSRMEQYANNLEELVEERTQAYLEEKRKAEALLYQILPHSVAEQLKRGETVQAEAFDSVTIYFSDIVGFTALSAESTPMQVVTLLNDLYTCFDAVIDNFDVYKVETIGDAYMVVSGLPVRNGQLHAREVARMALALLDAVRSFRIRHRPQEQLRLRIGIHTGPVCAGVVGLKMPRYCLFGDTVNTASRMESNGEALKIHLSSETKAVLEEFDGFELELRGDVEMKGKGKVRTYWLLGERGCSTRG
Excerpt: as §1

[3] = target: T3, human NPR-C (natriuretic peptide receptor C, clearance receptor), overexpressed on HEK293 cells (human, UniProt P17342 27-541); assay: PLAP activity bound to NPR-C-transfected HEK293 cells, saturation binding
T3 construct: whole, on cells; also called natriuretic clearance receptor
T3 sequence (looked up): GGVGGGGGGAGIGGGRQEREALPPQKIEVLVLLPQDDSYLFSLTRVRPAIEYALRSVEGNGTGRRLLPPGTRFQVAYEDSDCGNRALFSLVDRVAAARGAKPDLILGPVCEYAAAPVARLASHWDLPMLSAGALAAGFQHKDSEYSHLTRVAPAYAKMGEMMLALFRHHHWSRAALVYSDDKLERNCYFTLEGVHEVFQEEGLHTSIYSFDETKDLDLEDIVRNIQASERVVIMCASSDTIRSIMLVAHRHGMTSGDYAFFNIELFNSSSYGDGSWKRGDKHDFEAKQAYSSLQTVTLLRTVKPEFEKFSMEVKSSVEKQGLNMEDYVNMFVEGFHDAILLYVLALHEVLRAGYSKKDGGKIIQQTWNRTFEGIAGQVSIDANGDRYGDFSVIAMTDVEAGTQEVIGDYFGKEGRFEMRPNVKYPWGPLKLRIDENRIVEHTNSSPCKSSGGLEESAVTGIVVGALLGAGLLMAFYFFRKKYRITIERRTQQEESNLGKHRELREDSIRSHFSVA
Excerpt: as §1

[4] = target: T3, human NPR-C (natriuretic peptide …); assay: cell-based or functional assay
[5] = target: T3, human NPR-C (natriuretic peptide …); assay: competition of ~30 nM PLAP-Ostn binding on NPR-C-transfected HEK293 cells
Experimental: To further validate the specificity and affinity of Ostn-NPR-C binding, competition experiments were conducted in NPR-C over-expressing cells. […] (SEQ ID NO: 71) lacking a part of NM2. […] (SEQ ID NO: 66) or Ostn[117-130] (SEQ ID NO: 71). […] (SEQ ID NO: 66) was able to compete off 50% of the binding of PLAP-mOstn in the ˜1-10 nM range, in contrast to Ostn[117-130] (SEQ ID NO: 71) that was unable to efficiently compete up to 100 nM (FIG. 7B).

[6] = target: T4, NPR-C on ATDC5 cells (mouse chondrogenic cell line) (mouse, UniProt P70180 41-536); assay: displacement of 125I-Ostn[83-133] from ATDC5 cells
T4 construct: whole, on cells; also called ATDC5 cells surface
T4 sequence (looked up): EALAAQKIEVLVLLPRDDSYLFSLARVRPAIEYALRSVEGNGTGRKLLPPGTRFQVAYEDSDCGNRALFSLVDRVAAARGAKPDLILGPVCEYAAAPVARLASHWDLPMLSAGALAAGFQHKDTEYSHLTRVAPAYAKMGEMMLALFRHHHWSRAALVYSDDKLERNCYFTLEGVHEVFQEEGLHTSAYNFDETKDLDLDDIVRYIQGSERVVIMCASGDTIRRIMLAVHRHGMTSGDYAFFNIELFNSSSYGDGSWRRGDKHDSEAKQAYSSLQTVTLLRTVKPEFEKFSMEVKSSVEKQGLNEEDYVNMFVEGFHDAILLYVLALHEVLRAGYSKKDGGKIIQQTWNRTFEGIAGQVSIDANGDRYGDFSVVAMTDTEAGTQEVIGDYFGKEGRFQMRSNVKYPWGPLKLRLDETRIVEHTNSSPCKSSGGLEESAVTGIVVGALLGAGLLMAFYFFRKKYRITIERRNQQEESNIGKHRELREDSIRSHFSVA
Experimental: (SEQ ID NO: 41) for 90 min at 4° C. After incubation, cells were washed twice with ice-cold PBS and solubilized with 0.5-ml of 0.5 M NaOH.
The radioactivity was measured with gamma-counter (Wallac). […] (SEQ ID NO: 41) and the IC₅₀ calculated was 4.7 nM. […] (SEQ ID NO: 41) (FIG. 12b).

[7] = target: T5, endogenous GC-A of HEK293 cells (human, UniProt P16066 33-1061); assay: cell-based or functional assay
T5 sequence (looked up): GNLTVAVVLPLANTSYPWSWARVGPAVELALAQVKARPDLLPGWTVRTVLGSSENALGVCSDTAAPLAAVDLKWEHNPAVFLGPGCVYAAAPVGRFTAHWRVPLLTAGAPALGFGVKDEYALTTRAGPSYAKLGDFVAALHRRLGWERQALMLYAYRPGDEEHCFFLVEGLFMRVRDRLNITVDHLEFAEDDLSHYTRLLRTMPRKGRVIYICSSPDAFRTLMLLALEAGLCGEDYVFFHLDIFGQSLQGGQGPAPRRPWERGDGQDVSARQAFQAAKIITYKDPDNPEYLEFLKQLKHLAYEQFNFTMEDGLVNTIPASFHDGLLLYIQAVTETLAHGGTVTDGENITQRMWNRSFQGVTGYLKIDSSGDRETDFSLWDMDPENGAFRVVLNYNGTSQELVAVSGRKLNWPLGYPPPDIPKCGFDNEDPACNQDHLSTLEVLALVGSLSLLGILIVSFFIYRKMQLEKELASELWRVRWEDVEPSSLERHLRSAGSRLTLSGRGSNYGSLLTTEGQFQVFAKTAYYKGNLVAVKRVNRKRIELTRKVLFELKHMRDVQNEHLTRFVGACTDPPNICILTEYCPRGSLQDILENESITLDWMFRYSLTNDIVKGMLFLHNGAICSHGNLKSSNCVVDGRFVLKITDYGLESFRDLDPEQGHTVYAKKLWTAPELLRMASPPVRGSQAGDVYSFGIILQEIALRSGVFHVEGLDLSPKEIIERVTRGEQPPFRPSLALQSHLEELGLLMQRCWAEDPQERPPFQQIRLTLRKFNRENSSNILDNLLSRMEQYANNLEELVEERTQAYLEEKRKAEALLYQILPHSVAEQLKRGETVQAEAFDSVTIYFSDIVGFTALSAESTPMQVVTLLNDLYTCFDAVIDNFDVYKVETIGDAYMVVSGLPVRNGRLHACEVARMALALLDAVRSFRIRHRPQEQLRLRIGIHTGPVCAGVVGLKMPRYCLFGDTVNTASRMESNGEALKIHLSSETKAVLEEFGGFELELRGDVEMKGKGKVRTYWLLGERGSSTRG

B2: mouse amidated Ostn[107-129] synthetic C-terminal peptide (peptide)
peptide: YDHSKKRFGIPMDRIGRNRLSNSR-NH2
cGMP levels of NPR-C-expressing HEK293 cells with 0.1 nM ANP and 10 nM Ostn[107-129] [4]: 4 fold
IC50 [5]: 1 to 10 nM

B3: human Ostn[83-133] (cold) (peptide)
peptide: SFSGFGSPLDRLSAGSVDHKGKQRKVVDHPKRRFGIPMDRIGRNRLSNSRG
notes: Bought from Phoenix Pharmaceutical co
IC50 [6]: 4.7 nM

Next, values leading:

binding result [1]: no binding
binding result [2]: no binding
EC50 [3]: ~30 nM
B1: PLAP-Ostn fusion protein (N-terminal secreted placental alkaline phosphatase moiety linked to mouse Ostn[29-130]) (other)
chain: DAAQPARRARRTYEAYVRSSGIIPVEEENPDFWNREAAEALGAAKKLQPAQTAAKNLIIFLGDGMGVSTVTAARILKGQKKDKLGPEIPLAMDRFPYVALSKTYNVDKHVPDSGATATAYLCGVKGNFQTIGLSAAARFNQCNTTRGNEVISVMNRAKKAGKSVGVVTTTRVQHASPAGTYAHTVNRNWYSDADVPASARQEGCQDIATQLISNMDIDVILGGGRKYMFPMGTPDPEYPDDYSQGGTRLDGKNLVQEWLAKRQGARYVWNRTELMQASLDPSVTHLMGLFEPGDMKYEIHRDSTLDPSLMEMTEAALRLLSRNPRGFFLFVEGGRIDHGHHESRAYRALTETIMFDDAIERAGQLTSEEDTLSLVTADHSHVFSFGGYPLRGSSIFGLAPGKARDRKAYTVLLYGNGPGYVLKDGARPDVTESESGSPEYRQQSAVPLDEETHAGEDVAVFARGPQAHLVHGVQEQTFIAHVMAFAACLEPYTACDLAPPAGTTDAAHPGYLDLASQEFGTASLQSPPTAREEKSATELSAKLLRLDDLVSLENDVFETKKKRSFSGFGSPLDRLSAGSVEHRGKQRKAVDHSKKRFGIPMDRIGRNRLSSSRG
notes: Used as conditioned medium of transfected HEK293 cells; also called PLAP-mOstn

increase in cGMP levels upon ANP stimulation of GFP-transfected HEK293 cells [7]: 9 fold
increase in cGMP levels upon stimulation of NPR-C-overexpressing HEK293 cells with 0.1 nM ANP[1-28] [4]: 1.5 fold
B4: Rat ANP (1-28) (ligand)
peptide: SLRRSSCFGGRIDRIGAQSGLGCNSFRY
modifications: ends and bridges not checked; cysteine pairing not given here
